Experimental findings from US20100099619A1 are described below.

The first assay deals with T1, neuropeptide Y1 receptor, P25929.
T1 chain: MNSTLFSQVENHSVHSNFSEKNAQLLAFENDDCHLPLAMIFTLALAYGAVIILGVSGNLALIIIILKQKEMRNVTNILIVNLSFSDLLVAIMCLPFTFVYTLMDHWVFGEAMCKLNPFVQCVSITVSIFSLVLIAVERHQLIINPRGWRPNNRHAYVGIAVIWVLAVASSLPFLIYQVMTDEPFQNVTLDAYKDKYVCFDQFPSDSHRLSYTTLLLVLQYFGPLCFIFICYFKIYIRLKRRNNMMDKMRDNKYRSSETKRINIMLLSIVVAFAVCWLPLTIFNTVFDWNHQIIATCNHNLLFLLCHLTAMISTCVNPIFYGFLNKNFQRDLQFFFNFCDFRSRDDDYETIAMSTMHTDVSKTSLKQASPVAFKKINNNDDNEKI
Put plainly: radioligand competition, [125I]-hPYY, SK-N-MC membranes. (In general: Displacement assays read how much labelled ligand stays bound in the presence of the test substance.)
The molecule APLEPVYPGDNATPEQMNRYYASLRHFLNLVTRQRY (modifications not checked) [SEQ ID NO 288] yielded a Y1RBA of 1.8 nM.
In the case of APLEPVYPGDNATPEQMNRYYASLRAYLNLVTRQRY (modifications not checked) [SEQ ID NO 308], the Y1RBA came to 1 nM.
On to APLEPVYPGDNATPEQLNRYYASLRHYLNLVTRQRY (modifications not checked) [SEQ ID NO 295], for which the Y1RBA is 1 nM.
As for APLEPVYPGDNATPEELNRYYASLRHYLNLVTRQRY (modifications not checked) [SEQ ID NO 296], the Y1RBA is 2.7 nM.
As for APLEPVYPGDNASPEELNRYYASLRHYLNLVTRQRY (modifications not checked) [SEQ ID NO 297], the Y1RBA stood at 3.6 nM.
Take APLEPVYPGDNATPEQMNKYYASLRHYLNLVTRQRY (modifications not checked) [SEQ ID NO 306]: the Y1RBA stood at 0.6 nM.
Molecule APLEPVYPGDNATPEQMNKYYASLRHYLNLVTRQRY (modifications not checked) [SEQ ID NO 293] came in with a Y1RBA of 0.82 nM.
The same measure, in the same setting: with YPIKPEAPGEDASPEELAQYAADLRRYINMLTRPRY (modifications not checked) [SEQ ID NO 309] the figure was 3.3 nM; with YPIKPEAPGEDASPDELAQYAADLRRYINMLTRQRY (modifications not checked) [SEQ ID NO 342], 15 nM.
As for YPIKPEAGPEDASPEELAQYAADLRRYINMLTRQRY (modifications not checked) [SEQ ID NO 335], the Y1RBA was 34 nM.
Consider YPIKPEAPGEDASPEELNQYAASLRRYINMLTRQRY (modifications not checked) [SEQ ID NO 317], for which the Y1RBA is 4.3 nM.
In the case of YPIKPEAPGEDASPQELAQYAADLRRYINMLTRQRY (modifications not checked) [SEQ ID NO 341], the Y1RBA was 1.8 nM.
Still for that read-out and setting: with YAIKPEAPGEDASPEELAQYAADLRRYINMLTRQRY (modifications not checked) [SEQ ID NO 318] the figure was 100 nM.

Another assay addresses T2, neuropeptide Y5 receptor (Homo sapiens (Human)), Q15761.
T2 chain: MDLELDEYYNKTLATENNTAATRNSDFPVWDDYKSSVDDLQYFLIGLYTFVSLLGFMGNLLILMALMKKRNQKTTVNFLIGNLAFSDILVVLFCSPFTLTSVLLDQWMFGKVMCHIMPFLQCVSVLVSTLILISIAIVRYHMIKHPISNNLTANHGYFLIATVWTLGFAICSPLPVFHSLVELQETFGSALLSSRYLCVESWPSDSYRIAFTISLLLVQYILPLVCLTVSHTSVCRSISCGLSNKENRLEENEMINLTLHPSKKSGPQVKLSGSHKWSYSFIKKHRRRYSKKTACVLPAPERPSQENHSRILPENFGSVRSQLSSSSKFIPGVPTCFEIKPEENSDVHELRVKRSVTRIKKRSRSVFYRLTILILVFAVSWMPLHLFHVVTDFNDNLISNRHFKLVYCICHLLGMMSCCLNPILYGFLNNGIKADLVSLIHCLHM
Kind of assay: radioligand competition, [125I]-hPYY, Y5/CHO-K1 membranes.
APLEPVYPGDNATPEQMNRYYASLRHFLNLVTRQRY (modifications not checked) [SEQ ID NO 288]: the Y5RBA amounted to 1.1 nM.
The same measure, in the same setting: the figure for APLEPVYPGDNATPEQMNRYYASLRAYLNLVTRQRY (modifications not checked) [SEQ ID NO 308] is 1.4 nM; for APLEPVYPGDNATPEQLNRYYASLRHYLNLVTRQRY (modifications not checked) [SEQ ID NO 295] it is 0.63 nM; for APLEPVYPGDNATPEELNRYYASLRHYLNLVTRQRY (modifications not checked) [SEQ ID NO 296] it is 2.1 nM.
With APLEPVYPGDNASPEELNRYYASLRHYLNLVTRQRY (modifications not checked) [SEQ ID NO 297], the Y5RBA amounted to 1.8 nM.
Take APLEPVYPGDNATPEQMNKYYASLRHYLNLVTRQRY (modifications not checked) [SEQ ID NO 306]: the Y5RBA was 0.27 nM.
The molecule APLEPVYPGDNATPEQMNKYYASLRHYLNLVTRQRY (modifications not checked) [SEQ ID NO 293] displayed a Y5RBA of 0.48 nM.
The same measure, in the same setting: with YPIKPEAPGEDASPEELAQYAADLRRYINMLTRPRY (modifications not checked) [SEQ ID NO 309] the figure was 1.5 nM.
The same measure, in the same setting: the figure for YPIKPEAPGEDASPDELAQYAADLRRYINMLTRQRY (modifications not checked) [SEQ ID NO 342] is 1.4 nM; for YPIKPEAGPEDASPEELAQYAADLRRYINMLTRQRY (modifications not checked) [SEQ ID NO 335] it is 3.6 nM.
Molecule YPIKPEAPGEDASPEELNQYAASLRRYINMLTRQRY (modifications not checked) [SEQ ID NO 317] came in with a Y5RBA of 0.69 nM.
Regarding YPIKPEAPGEDASPQELAQYAADLRRYINMLTRQRY (modifications not checked) [SEQ ID NO 341], the Y5RBA was found to be 0.3 nM.
YAIKPEAPGEDASPEELAQYAADLRRYINMLTRQRY (modifications not checked) [SEQ ID NO 318]: the Y5RBA was 1.9 nM.

For a further assay, the target named is neuropeptide Y4 receptor. Put plainly: radioligand competition, [125I]-hPP, Y4/CHO-K1 membranes.
Chain of neuropeptide Y4 receptor (P50391 whole entry): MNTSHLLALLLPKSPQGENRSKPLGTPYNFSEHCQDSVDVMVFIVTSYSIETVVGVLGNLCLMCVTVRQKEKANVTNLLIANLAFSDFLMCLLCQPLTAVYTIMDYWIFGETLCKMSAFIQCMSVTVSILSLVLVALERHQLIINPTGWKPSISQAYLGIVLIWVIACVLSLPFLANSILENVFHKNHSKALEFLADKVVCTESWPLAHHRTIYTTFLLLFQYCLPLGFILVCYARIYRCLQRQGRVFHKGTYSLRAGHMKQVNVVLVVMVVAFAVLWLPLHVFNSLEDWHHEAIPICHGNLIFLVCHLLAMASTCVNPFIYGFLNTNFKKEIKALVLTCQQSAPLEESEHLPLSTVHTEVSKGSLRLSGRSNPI
For APLEPVYPGDNATPEQMNRYYASLRHFLNLVTRQRY (modifications not checked) [SEQ ID NO 288], the Y4 RBA came out at 11 nM.
In turn, APLEPVYPGDNATPEQMNRYYASLRAYLNLVTRQRY (modifications not checked) [SEQ ID NO 308] came in with a Y4 RBA of 2.1 nM.
For APLEPVYPGDNATPEQLNRYYASLRHYLNLVTRQRY (modifications not checked) [SEQ ID NO 295], the Y4 RBA was 1 nM.
Turning to APLEPVYPGDNATPEELNRYYASLRHYLNLVTRQRY (modifications not checked) [SEQ ID NO 296], the Y4 RBA stood at 2.9 nM.
Regarding APLEPVYPGDNASPEELNRYYASLRHYLNLVTRQRY (modifications not checked) [SEQ ID NO 297], the Y4 RBA came out at 4 nM.
Molecule APLEPVYPGDNATPEQMNKYYASLRHYLNLVTRQRY (modifications not checked) [SEQ ID NO 306] yielded a Y4 RBA of 1.2 nM.
Same read-out and setting: the figure for APLEPVYPGDNATPEQMNKYYASLRHYLNLVTRQRY (modifications not checked) [SEQ ID NO 293] is 0.87 nM; for YPIKPEAPGEDASPEELAQYAADLRRYINMLTRPRY (modifications not checked) [SEQ ID NO 309] it is 5.6 nM.
In turn, YPIKPEAPGEDASPDELAQYAADLRRYINMLTRQRY (modifications not checked) [SEQ ID NO 342] displayed a Y4 RBA of 84 nM.
For the molecule YPIKPEAGPEDASPEELAQYAADLRRYINMLTRQRY (modifications not checked) [SEQ ID NO 335], the Y4 RBA worked out at 109 nM.
For the molecule YPIKPEAPGEDASPEELNQYAASLRRYINMLTRQRY (modifications not checked) [SEQ ID NO 317], the Y4 RBA stood at 16 nM.
As to YPIKPEAPGEDASPQELAQYAADLRRYINMLTRQRY (modifications not checked) [SEQ ID NO 341], the Y4 RBA amounted to 11 nM.
Same read-out and setting: the figure for YAIKPEAPGEDASPEELAQYAADLRRYINMLTRQRY (modifications not checked) [SEQ ID NO 318] is 84 nM.

In the next assay the target is T3, neuropeptide Y2 receptor, P49146.
T3 chain: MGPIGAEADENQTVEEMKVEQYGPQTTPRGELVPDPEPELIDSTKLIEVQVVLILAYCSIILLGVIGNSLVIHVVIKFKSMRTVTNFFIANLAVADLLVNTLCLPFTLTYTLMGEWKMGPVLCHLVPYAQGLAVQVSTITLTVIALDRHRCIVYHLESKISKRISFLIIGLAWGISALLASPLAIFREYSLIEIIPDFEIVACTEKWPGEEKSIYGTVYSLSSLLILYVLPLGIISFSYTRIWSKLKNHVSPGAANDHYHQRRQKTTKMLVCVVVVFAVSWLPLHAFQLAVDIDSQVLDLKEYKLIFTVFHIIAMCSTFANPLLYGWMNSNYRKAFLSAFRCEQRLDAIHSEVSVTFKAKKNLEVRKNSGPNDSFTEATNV
Kind of assay: radioligand competition, [125I]-hPYY, SK-N-BE membranes.
With APLEPVYPGDNATPEQMNRYYASLRHFLNLVTRQRY (modifications not checked) [SEQ ID NO 288], the Y2RBA was determined as 0.35 nM.
The molecule APLEPVYPGDNATPEQMNRYYASLRAYLNLVTRQRY (modifications not checked) [SEQ ID NO 308] returned a Y2RBA of 0.56 nM.
Same read-out and setting: the figure for APLEPVYPGDNATPEQLNRYYASLRHYLNLVTRQRY (modifications not checked) [SEQ ID NO 295] is 0.18 nM; for APLEPVYPGDNATPEELNRYYASLRHYLNLVTRQRY (modifications not checked) [SEQ ID NO 296] it is 0.76 nM; for APLEPVYPGDNASPEELNRYYASLRHYLNLVTRQRY (modifications not checked) [SEQ ID NO 297] it is 0.32 nM.
In the case of APLEPVYPGDNATPEQMNKYYASLRHYLNLVTRQRY (modifications not checked) [SEQ ID NO 306], the Y2RBA came to 0.16 nM.
Turning to APLEPVYPGDNATPEQMNKYYASLRHYLNLVTRQRY (modifications not checked) [SEQ ID NO 293], the Y2RBA amounted to 0.18 nM.
For the molecule YPIKPEAPGEDASPEELAQYAADLRRYINMLTRPRY (modifications not checked) [SEQ ID NO 309], the Y2RBA was found to be 78 nM.
Turning to YPIKPEAPGEDASPDELAQYAADLRRYINMLTRQRY (modifications not checked) [SEQ ID NO 342], the Y2RBA was 0.62 nM.
On the same count and under the same terms, the figure for YPIKPEAGPEDASPEELAQYAADLRRYINMLTRQRY (modifications not checked) [SEQ ID NO 335] is 0.72 nM; for YPIKPEAPGEDASPEELNQYAASLRRYINMLTRQRY (modifications not checked) [SEQ ID NO 317] it is 0.097 nM; for YPIKPEAPGEDASPQELAQYAADLRRYINMLTRQRY (modifications not checked) [SEQ ID NO 341] it is 0.15 nM.
The molecule YAIKPEAPGEDASPEELAQYAADLRRYINMLTRQRY (modifications not checked) [SEQ ID NO 318] came in with a Y2RBA of 1.3 nM.
